Assay results reported in publication PMC9838835 (PLOS ONE, 2023).

Molecular target: the molecule itself
Assay: native gel or EMSA

B1: Human butyrylcholinesterase (enzyme, UniProt P06276 29-602, looked up)
chain: EDDIIIATKNGKVRGMNLTVFGGTVTAFLGIPYAQPPLGRLRFKKPQSLTKWSDIWNATKYANSCCQNIDQSFPGFHGSEMWNPNTDLSEDCLYLNVWIPAPKPKNATVLIWIYGGGFQTGTSSLHVYDGKFLARVERVIVVSMNYRVGALGFLALPGNPEAPGNMGLFDQQLALQWVQKNIAAFGGNPKSVTLFGESAGAASVSLHLLSPGSHSLFTRAILQSGSFNAPWAVTSLYEARNRTLNLAKLTGCSRENETEIIKCLRNKDPQEILLNEAFVVPYGTPLSVNFGPTVDGDFLTDMPDILLELGQFKKTQILVGVNKDEGTAFLVYGAPGFSKDNNSIITRKEFQEGLKIFFPGVSEFGKESILFHYTDWVDDQRPENYREALGDVVGDYNFICPALEFTKKFSEWGNNAFFYYFEHRSSKLPWPEWMGVMHGYEIEFVFGLPLERRDNYTKAEEILSRSIVKRWANFAKYGNPNETQNNSTSWPVFKSTEQKYLTLNTESTRIMTKLRAQQCRFWTSFFPKVLEMTGNIDEAEWEWKAGFHRWNNYMMDWKNQFNDYTSKKESCVGL
notes: also called BChE; C4 (tetramer)
stoichiometry N: 4
